The results in this text go back to US20240174727A1, “LONG-ACTING NATRIURETIC PEPTIDES AND USES THEREOF” (Eli Lilly and Company, priority 2022, published 2024).

Positions count from the first letter of the chain named. Numbered stars: 1 amine (or outer) side, 2 acyl side, 3 side chain; on linkers, the order of the positions; unused ones are H or OH. Bridge positions count the residues as written; N and C are the ends. Square brackets hold non-standard residues; d marks the D form. * marks the point of attachment. thioacetal = thioacetal linkage between two cysteines (intrachain bond at the bracketed Cys); C20 diacid = O=C(O)CCCCCCCCCCCCCCCCCCC(=O)*; γGlu = O=C(O)[C@H](CCC(=O)[*:2])N[*:1]; Orn = NCCC[C@H](N)C(=O)O; Dap = NC[C@H](N)C(=O)O

To fix the notation:
B1: HOOC-(CH2)18-CO-(γGlu)-EKEKEKGEKPRSS[CFGKRIDRIG-Orn-YSGLGC]PSFRHGSPSSGAPPPS-NH2 (peptide)
peptide: {C20 diacid-γGlu}-EKEKEKGEKPRSSCFGKRIDRIG[Orn]YSGLGCPSFRHGSPSSGAPPPS-NH2
modifications: bridge 14-30 via thioacetal
B2: HOOC-(CH2)18-CO-(γGlu)-EKEKEKG-(AEEA)6-EKPRSS[CFGKRIDRIGHYSGLGC]PSFRHSGSPSSGAPPPSG-NH2 (peptide)
peptide: EKPRSSCFGKRIDRIGHYSGLGCPSFRHSGSPSSGAPPPSG
modifications: N-terminus acylated with HOOC-(CH2)18-CO-(γGlu)-; (AEEA)6 after EKEKEKG; thioacetal linkage between the two bracketed Cys; C-terminal amide
B3: HOOC-(CH2)18-CO-(γGlu)-EKEKEKG-PEG24-EKPRSS[CFGKRIDRIGHQSGLGC]PSFRHSGSPSSGAPPPSG-NH2 (peptide)
peptide: B2 peptide with Y18Q
modifications: N-terminus acylated with HOOC-(CH2)18-CO-(γGlu)-; PEG24 after EKEKEKG; thioacetal linkage between the two bracketed Cys; C-terminal amide
B4: HOOC-(CH2)18-CO-(γGlu)-EKEKEKG-(AEEA)8-EKPRSS[CFGKRIDRIGHYSGLGC]PSFRHSGSPSSGAPPPSG-NH2 (peptide)
peptide: B2 peptide
modifications: N-terminus acylated with HOOC-(CH2)18-CO-(γGlu)-; (AEEA)8 after EKEKEKG; thioacetal linkage between the two bracketed Cys; C-terminal amide
B5: HOOC-(CH2)18-CO-(γGlu)-EKEKEKG-PEG24-EKPRSS[CFGKGIDRIGHQSGLGC]PSFRHSGSPSSGAPPPSG-NH2 (peptide)
peptide: B2 peptide with R11G, Y18Q
modifications: N-terminus acylated with HOOC-(CH2)18-CO-(γGlu)-; PEG24 after EKEKEKG; thioacetal linkage between the two bracketed Cys; C-terminal amide
B6: HOOC-(CH2)18-CO-(γGlu)-EKEKEKG-PEG24-EKPRSS[CFGKRIDRIGHYSGLGC]PSFRHSGSPSSGAPPPSG-NH2 (peptide)
peptide: B2 peptide
modifications: N-terminus acylated with HOOC-(CH2)18-CO-(γGlu)-; PEG24 after EKEKEKG; thioacetal linkage between the two bracketed Cys; C-terminal amide
B7: HOOC-(CH2)18-CO-(γGlu)-EKEKEKG-(AEEA)6-S-4Pal-RRSS[CFGKRIDRIGHYSGLGC]PSFRHGSGSPSSGAPPPSG-NH2 (peptide)
peptide: SXRRSSCFGKRIDRIGHYSGLGCPSFRHGSGSPSSGAPPPSG
modifications: N-terminus acylated with HOOC-(CH2)18-CO-(γGlu)-; (AEEA)6 after EKEKEKG; 4Pal; thioacetal linkage between the two bracketed Cys; C-terminal amide
B8: HOOC-(CH2)18-CO-(γGlu)-EKEKEKGEKPRSS[CFGG-Dap-IDRIGHYSGLGC]PSFRHGSPSSGAPPPS-NH2 (peptide)
peptide: {C20 diacid-γGlu}-EKEKEKGEKPRSSCFGG[Dap]IDRIGHYSGLGCPSFRHGSPSSGAPPPS-NH2
modifications: bridge 14-30 via thioacetal
B9: HOOC-(CH2)18-CO-(γGlu)-EKEKEKG-PEG24-S-4Pal-RRSS[CFGKRIDRIGHYSGLGC]PSFRHGGKSSGAPPPS-NH2 (peptide)
peptide: SXRRSSCFGKRIDRIGHYSGLGCPSFRHGGKSSGAPPPS
modifications: N-terminus acylated with HOOC-(CH2)18-CO-(γGlu)-; PEG24 after EKEKEKG; 4Pal; thioacetal linkage between the two bracketed Cys; C-terminal amide

In the first test the target is T1, rat NPRA (rat, UniProt P18910 29-1057).
T1 sequence (looked up): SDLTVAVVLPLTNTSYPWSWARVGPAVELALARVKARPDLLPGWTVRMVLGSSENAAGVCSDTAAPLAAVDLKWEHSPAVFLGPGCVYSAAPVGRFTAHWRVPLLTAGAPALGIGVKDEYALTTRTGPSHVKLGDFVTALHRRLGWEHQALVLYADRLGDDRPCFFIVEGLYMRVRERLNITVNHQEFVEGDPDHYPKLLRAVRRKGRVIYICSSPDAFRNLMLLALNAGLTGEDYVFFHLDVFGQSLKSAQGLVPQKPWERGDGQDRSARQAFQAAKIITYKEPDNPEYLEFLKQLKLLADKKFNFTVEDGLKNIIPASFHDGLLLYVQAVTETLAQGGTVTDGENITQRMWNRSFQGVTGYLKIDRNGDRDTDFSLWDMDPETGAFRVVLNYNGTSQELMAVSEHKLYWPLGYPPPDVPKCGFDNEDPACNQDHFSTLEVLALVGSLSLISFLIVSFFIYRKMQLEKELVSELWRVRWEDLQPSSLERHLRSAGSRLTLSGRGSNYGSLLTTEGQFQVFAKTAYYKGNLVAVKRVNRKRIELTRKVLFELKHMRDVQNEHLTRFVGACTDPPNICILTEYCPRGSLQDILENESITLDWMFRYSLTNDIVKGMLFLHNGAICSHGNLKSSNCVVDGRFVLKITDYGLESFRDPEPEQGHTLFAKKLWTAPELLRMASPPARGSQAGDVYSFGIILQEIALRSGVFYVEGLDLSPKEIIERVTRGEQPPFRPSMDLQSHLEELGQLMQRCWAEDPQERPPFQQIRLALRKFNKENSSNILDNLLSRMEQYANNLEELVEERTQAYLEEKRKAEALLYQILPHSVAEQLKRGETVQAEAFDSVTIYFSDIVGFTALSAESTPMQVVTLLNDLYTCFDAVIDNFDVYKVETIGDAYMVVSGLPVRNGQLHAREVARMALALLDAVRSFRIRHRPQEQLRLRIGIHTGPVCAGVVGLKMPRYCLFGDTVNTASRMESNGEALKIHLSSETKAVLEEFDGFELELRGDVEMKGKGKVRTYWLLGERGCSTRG
Kind of test: cell-based or functional assay.
As to B1, the “cGMP Assay (EC50, pM) w/BSA, rNPRA” value was 6.52e+06 pM and the “cGMP Assay (EC50, pM) w/Casein, rNPRA” value is 186000 pM.

For B2, the “cGMP Assay (EC50, pM) w/BSA, rNPRA” value turned out to be 205000 pM and the “cGMP Assay (EC50, pM) w/Casein, rNPRA” value is 3830 pM.

Regarding B3, the “cGMP Assay (EC50, pM) w/BSA, rNPRA” value was found to be 260000 pM and the “cGMP Assay (EC50, pM) w/Casein, rNPRA” value amounted to 9390 pM.

B4: the “cGMP Assay (EC50, pM) w/BSA, rNPRA” value turned out to be 88500 pM and the “cGMP Assay (EC50, pM) w/Casein, rNPRA” value was determined as 3760 pM.

As to B5, the “cGMP Assay (EC50, pM) w/BSA, rNPRA” value came out at 1.45e+06 pM and the “cGMP Assay (EC50, pM) w/Casein, rNPRA” value was determined as 580000 pM.

Take B6: the “cGMP Assay (EC50, pM) w/BSA, rNPRA” value was 74300 pM and the “cGMP Assay (EC50, pM) w/Casein, rNPRA” value was 4510 pM.

With B7, the “cGMP Assay (EC50, pM) w/BSA, rNPRA” value turned out to be 200000 pM and the “cGMP Assay (EC50, pM) w/Casein, rNPRA” value was found to be 6040 pM.

Consider B8, for which the “cGMP Assay (EC50, pM) w/BSA, rNPRA” value is 3.8e+06 pM and the “cGMP Assay (EC50, pM) w/Casein, rNPRA” value turned out to be 71700 pM.

Regarding B9, the “cGMP Assay (EC50, pM) w/BSA, rNPRA” value turned out to be 89100 pM and the “cGMP Assay (EC50, pM) w/Casein, rNPRA” value is 5320 pM.

In another test the target is T2, human NPRA (human, UniProt P16066 33-1061).
T2 sequence (looked up): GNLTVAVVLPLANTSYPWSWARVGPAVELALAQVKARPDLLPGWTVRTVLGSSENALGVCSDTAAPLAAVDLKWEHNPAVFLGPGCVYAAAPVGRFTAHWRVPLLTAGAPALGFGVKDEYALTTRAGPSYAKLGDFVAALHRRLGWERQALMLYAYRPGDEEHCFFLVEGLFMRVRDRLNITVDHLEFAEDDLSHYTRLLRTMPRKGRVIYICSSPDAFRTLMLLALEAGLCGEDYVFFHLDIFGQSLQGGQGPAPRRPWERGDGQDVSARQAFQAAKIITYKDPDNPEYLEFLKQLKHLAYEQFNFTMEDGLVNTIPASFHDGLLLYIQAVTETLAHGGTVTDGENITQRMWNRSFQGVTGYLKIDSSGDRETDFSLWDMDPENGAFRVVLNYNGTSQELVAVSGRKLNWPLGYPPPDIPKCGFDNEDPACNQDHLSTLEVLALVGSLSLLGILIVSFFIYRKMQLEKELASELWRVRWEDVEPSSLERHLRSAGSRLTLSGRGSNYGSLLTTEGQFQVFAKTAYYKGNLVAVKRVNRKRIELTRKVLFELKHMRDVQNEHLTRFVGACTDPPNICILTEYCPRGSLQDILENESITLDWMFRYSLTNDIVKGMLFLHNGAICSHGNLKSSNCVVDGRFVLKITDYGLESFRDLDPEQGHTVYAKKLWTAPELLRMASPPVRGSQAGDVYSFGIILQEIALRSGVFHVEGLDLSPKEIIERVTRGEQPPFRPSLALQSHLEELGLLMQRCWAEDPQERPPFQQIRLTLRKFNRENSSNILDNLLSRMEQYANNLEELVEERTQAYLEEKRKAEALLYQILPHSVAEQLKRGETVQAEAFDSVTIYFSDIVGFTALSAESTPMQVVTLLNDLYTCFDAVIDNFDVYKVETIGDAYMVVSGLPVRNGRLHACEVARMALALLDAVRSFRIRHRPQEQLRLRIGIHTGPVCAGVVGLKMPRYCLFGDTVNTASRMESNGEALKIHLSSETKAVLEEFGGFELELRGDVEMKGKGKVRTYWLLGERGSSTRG
Kind of test: cell-based or functional assay.
In the case of B1, the “cGMP Assay (EC50, pM) w/BSA, hNPRA” value was 104000 pM and the “cGMP Assay (EC50, pM) w/Casein, hNPRA” value was 497 pM.

For the molecule B2, the “cGMP Assay (EC50, pM) w/BSA, hNPRA” value was 8970 pM and the “cGMP Assay (EC50, pM) w/Casein, hNPRA” value was 745 pM.

For the molecule B3, the “cGMP Assay (EC50, pM) w/BSA, hNPRA” value came to 5300 pM and the “cGMP Assay (EC50, pM) w/Casein, hNPRA” value came out at 704 pM.

With B4, the “cGMP Assay (EC50, pM) w/BSA, hNPRA” value is 6370 pM and the “cGMP Assay (EC50, pM) w/Casein, hNPRA” value was 1090 pM.

For the molecule B5, the “cGMP Assay (EC50, pM) w/BSA, hNPRA” value came out at 302000 pM and the “cGMP Assay (EC50, pM) w/Casein, hNPRA” value turned out to be 38700 pM.

Consider B6, for which the “cGMP Assay (EC50, pM) w/BSA, hNPRA” value was 3980 pM and the “cGMP Assay (EC50, pM) w/Casein, hNPRA” value amounted to 656 pM.

With B7, the “cGMP Assay (EC50, pM) w/BSA, hNPRA” value came to 9170 pM and the “cGMP Assay (EC50, pM) w/Casein, hNPRA” value worked out at 922 pM.

On to B8, for which the “cGMP Assay (EC50, pM) w/BSA, hNPRA” value was 1.41e+06 pM and the “cGMP Assay (EC50, pM) w/Casein, hNPRA” value was 5350 pM.

Take B9: the “cGMP Assay (EC50, pM) w/BSA, hNPRA” value came to 2210 pM and the “cGMP Assay (EC50, pM) w/Casein, hNPRA” value was found to be 580 pM.
